Four proteins from publication PMC9780748 can be followed below.

What all share (test): potentiometry
In series [1] the target is Glu303 (UniProt position 303, …). The conditions noted are these: 298 K; 0.1 M NaClO4; none (HClO4/KOH); free peptide (0.5 mM), no metal.
Series [2] concerns the target Cterm310 (UniProt position 310, GQLHCT-----). The conditions noted are these: 298 K; 0.1 M NaClO4; none (HClO4/KOH); free peptide (0.5 mM), no metal.
Series [3] addresses Arg187 (UniProt position 187, …). The conditions noted are these: 298 K; 0.04 M sodium dodecyl sulfate (no other salt stated); none (HClO4/KOH); free peptide (0.5 mM) in SDS, no metal.
For series [4], the target named is Tyr189 (UniProt position 189, …). The conditions noted are these: 298 K, 0.04 M sodium dodecyl sulfate (no other salt stated), none (HClO4/KOH).
Series [5] has as its target Lys79 (UniProt position 79, …). The conditions noted are these: 298 K, 0.1 M NaClO4, none (HClO4/KOH).
The target of series [6] is Arg76 (UniProt position 76, …). The conditions noted are these: 298 K, 0.1 M NaClO4, none (HClO4/KOH).
Where [7] appears, read: free peptide (0.5 mM) in SDS, no metal.
[8] abbreviates: Ni(II) complex, metal:peptide 1:1, 0.5 mM peptide.
Setting [9] is: Zn(II) complex, metal:peptide 1:1, 0.5 mM peptide.
Setting [10] is: free peptide (0.5 mM), no metal.

As usually defined, the pKa is the pH at which an ionisable group is half protonated. In the case of PNCHTHEGGQLHCT [Aspf2 (Asp f 2 zincophore) C-terminal fragment 297-310, Ac-PNCHTHEGGQLHCT (Aspergillus fumigatus)], the pKa in series [1] is 4.24; in series [2], 3.08.

Regarding MHRLYHVP [Aspf2 (Asp f 2 zincophore) fragment 185-192, Ac-MHRLYHVP-NH2 (Aspergillus fumigatus)], the pKa came out at 11.21 in series [3] and 9.56 in series [4] (setting [7]).

With ARHAKAH [Aspf2 (Asp f 2 zincophore) fragment 75-81, Ac-ARHAKAH-NH2 (Aspergillus fumigatus)], the pKa in series [5] (setting [8]) is listed as 9.87; in series [5] (setting [9]) it was 9.75; in series [5] (setting [10]), 9.79; in series [6] (setting [8]) it was 11.38; in series [6] (setting [9]), 11.79; in series [6] (setting [10]), 11.14.

In the case of MHRLYHVPAVGQGWVDHFAD [Aspf2 (Asp f 2 zincophore) fragment 185-204, Ac-MHRLYHVPAVGQGWVDHFAD-NH2 (Aspergillus fumigatus)], the pKa was 11.24 in series [3]; 9.56 in series [4] (Zn(II) complex, metal:peptide 1:1, 0.5 mM peptide, in SDS); 10.12 in series [4] (setting [7]).
